Kd data for 1 sequence are collected here from paper PMC3775802.

For series [1], the target named is T1, human alpha-thrombin (THR) (Homo sapiens) (UniProt P00734+P00734). The experiment in a line: back-scattering interferometry. To be noted: 5' amino modifier C6 as ordered; 20 mM Tris-HCl pH 7.4, 1 mM MgCl2, 120 mM NaCl, 10 mM KCl; thrombin co-injected with 500 nM cytochrome c; binding temperature not stated; cited from earlier work.
Series [2] concerns the target T1, human alpha-thrombin (THR) (Homo sapiens). In words: competition (SPRi, free thrombin quantification). To be noted: 5' amino modifier C6 as ordered; 20 mM Tris-HCl pH 7.4, 1 mM MgCl2, 120 mM NaCl, 10 mM KCl; thrombin co-injected with 500 nM cytochrome c; binding temperature not stated.

Broadly, the Kd is the concentration at which binding is half-saturated. As to “TTTTTTTTTTAGTCCGTGGTAGGGGAGGTTGGGGTGACT [APT (anti-thrombin aptamer), solution competitor]”, the Kd in series [1] was 3.84 nM; in series [2], 3.16 nM.
